Experimental data: patent US6613878B1, “PCNA binding substance” (Cyclacel Limited, priority 1995, dated 2003)
Ends that are not written are not given here.

Columns and labels:
[1] = target: T1, PCNA (Homo sapiens, UniProt P12004); experiment: Peptide precipitation of PCNA from HeLa cell lysate, PC10 Western blot; format: binding; design: HeLa cell lysate was added to the washed beads to a final protein concentration of 1 mg/ml; endogenous in cells; host or cells: HeLa; conditions: 2.7 μg peptide on beads; HeLa lysate 1 mg/ml; PC10 immunoblot
T1 sequence (P12004 whole entry): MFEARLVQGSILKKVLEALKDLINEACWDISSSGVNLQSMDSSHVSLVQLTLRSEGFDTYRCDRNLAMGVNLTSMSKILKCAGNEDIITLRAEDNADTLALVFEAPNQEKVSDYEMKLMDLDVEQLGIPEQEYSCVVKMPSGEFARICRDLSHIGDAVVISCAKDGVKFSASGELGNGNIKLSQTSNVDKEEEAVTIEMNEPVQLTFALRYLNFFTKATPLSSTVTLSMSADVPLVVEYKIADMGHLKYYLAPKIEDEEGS
Method: Twenty amino acid peptides with 15 amino acid overlaps were synthesized (Chiron Mimotopes, Australia) across the 89 amino acids from the C-terminal region of Fen1 identified in the two hybrid screen as the PCNA binding site on Fen1. These peptides were linked via residues SGSG (SEQ ID NO:3) at the amino acid terminus to biotin. 2.7 μg of each peptide was incubated with 10 μl streptavidin agarose beads (Sigma) in phosphate buffered saline (PBS) for 1 hour at room temperature (r.t.) then beads were washed extensively in PBS and recovered each time by centrifugation at 11,600 g. HeLa cell lysate was added to the washed beads to a final protein concentration of 1 mg/ml and incubated with the beads on ice for 1 hour. Beads were extensively washed in PBS with 220 mM NaCl, then bound proteins removed by boiling for 8 minutes in SDS loading buffer with 0.2 M DTT. Proteins were separated on 10% SDS-PAGE then electrophoretically transferred to nitrocellulose. Blots were blocked then incubated for 1 hour r.t. with PC 10 hybridoma supernatant (Waseem & Lane, 1990) diluted 1:5 in DMEM with 10% FCS. After washing, secondary HRP-conjugated anti-mouse IgG serum at 1:1000 in 2% non-fat milk-PBS-0.2% Tween was added for 1 hour at r.t. Bound antibody was visualised using the ECL system according to the manufacturer's instructions (Amersham plc.)
To map precisely the residues of Fen1 to which PCNA binds, a series of biotinylated 20 amino acids peptides (with 15 amino acid overlaps) were synthesized representing the region of Fen1 found to interact with PCNA in the two hybrid screen (FIG. 1). Fen1 peptides (bound to streptavidin agarose beads) were incubated with human HeLa cell extracts, then beads were precipitated and bound protein analysed on immunoblots probed with monoclonal anti-PCNA antibody PC10 (Waseen & Lane, 1990).
The region of human Fen1 recognised by PCNA in the precipitation assay contains a motif highly conserved in the Fen1 family. We examined whether human PCNA could bind to his motif in the yeast homologues of Fen1, S. pombe rad2 and […]/YKL510. […]

[2] = target: T1, PCNA; experiment: Competitive ELISA: PCNA binding to immobilised FenPBP (peptide 84); design: made in house; used as unpurified lysate; conditions: non-biotinylated 9-mer, FIG. 4
Method: Biotinylated FenPBP (peptide 84 (SEQ ID NO:4)—see FIG. 2) was immobilised on ELISA dishes pre-coated with streptavidin. Bacterial cell lysate overexpressing recombinant human PCNA was mixed with increasing amounts of a non-biotinylated 9 amino acid peptide QTSMTDFYH (SEQ ID NO:2) derived from p21PBP (Warbrick et al., 1995), then binding of PCNA to the immobilised FenPBP was measured using polyclonal antibody 3009 against PCNA, followed by HRP-anti-rabbit antibody,and calorimetric detection at 450 nm.
ELISA plates were coated overnight at 37° C. with 100 ng of streptavidin per well. Plates were blocked with 5% non-fat milk powder in PBS, washed extensively with PBS containing 0.2% Tween 20 (PBS-T) then 100 μl FenPBP—peptide 84 (SEQ ID NO:4) (see FIG. 2)—at 10 μg/ml was added to each well. Following 1 hour incubation at r.t. in a humid chamber, wells were washed extensively. Approximately 3.5 μg total protein containing overexpressed recombinant human PCNA was mixed with varying concentrations of a 9 amino acid peptide derived from p21PBP (Warbrick et al, 1995), of the sequence QTSMTDFYH (SEQ ID NO:2) (purified by HPLC and verified by mass spectrometry) and applied to the wells for 1 hour at r.t. After extensive washing, anti-PCNA polyclonal antibody 3009 (Cox et al., manuscript in preparation) was added at 1:1000, followed by HRP-conjugated anti-rabbit IgG serum at 1:1000, and bound antibody was visualized by the TMB colormetric procedure (Harlow & Lane, 1998). Plated were read at 450 nm using a Dynatech 5000 plate reader.
Since the region of PCNA bound by Fen1 is the same as that recognised by p21^Cip1, and the motif of Fen1 required for PCNA interaction appears homologous to the critical residues of p21PBP (Warbrick et al., 1995), it is highly possible that Fen1 and p21^Cip1 might compete for binding to PCNA. We therefore tested this hypothesis using PCNA-interacting peptide 84 (SEQ ID NO:4) of Fen1 (dubbed Fen1PBP for Fen1-PCNA binding peptide) immobilised in ELISA wells. […]

| PCNA precipitated from HeLa cell extract by biotinylated peptide on streptavidin agarose beads [1] | Concentration of added peptide giving total displacement of PCNA from immobilised Fen1PBP ([2]; immobilised Fen1PBP) [mM] | Concentration of peptide that completely prevented PCNA binding to Fen1PBP (approximate molar) ([2]; immobilised biotinylated FenPBP) | Concentration of peptide that completely prevented PCNA binding to Fen1PBP ([2]; immobilised biotinylated FenPBP, antibody 3009, read at 450 nm) [µg/mL] | Substance |
| --- | --- | --- | --- | --- |
| equal efficiency | – | – | – | 86: Biotinylated 20 amino acid peptide of the human Fen1 C-terminal region containing TQGRLDDFFK (SGSGTQGRLDDFFKVTGSLSSAKR; also: biotinylated) [compound 86] |
| equal efficiency | – | – | – | peptide 84: Biotinylated (SGSG-linked) 20 amino acid peptide of the human Fen1 C-terminal region containing TQGRLDDFFK; Fen1-PCNA binding peptide (SGSGKRLSKSRQGSTQGRLDDFFK; also: biotinylated, site not given here) |
| – | 1 | approximately 1 μM | 1 | QTSMTDFYH [Non-biotinylated 9 amino acid peptide derived from p21PBP (Warbrick et al., 1995)] |
| equal efficiency | – | – | – | 85: Biotinylated 20 amino acid peptide of the human Fen1 C-terminal region containing TQGRLDDFFK (SGSGSRQGSTQGRLDDFFKVTGSL; also: biotinylated) [compound 85] |
